The results in this text go back to US20100239597A1 (NORTHWESTERN UNIVERSITY, published 2010).

Residue numbers refer to the chain shown, from its start.

T1: biotin-Aβ1-20 (UniProt P05067 672-691, biotin (site not stated))
T1 construct: domain: Aβ1-20; Monomeric Aβ fragment used as BIACORE antigen; also called biotinylated-Aβ1-20
T1 peptide (looked up): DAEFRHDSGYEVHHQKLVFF

B1: 4a-C9 Fab (Fab, V domains shown)
VH: QVTLKESGPALVKPTQTLTLTCTLSGFSLSTSGMGVGWIRQPPGKALEWLAHIWWDDDKSYNPSLKSRLTISKDTSKNQVVLTMTNMDPVDTATYYCARRQLGQAGHDAMDYWGQGTTVTVSS
VL: DVVMTQSPLSLPVTPGEPASISCRSSQSILHSNGNTYLEWYLQKPGQSPQLLIYKVSNRFSGVPDRFSGSGSGTDFTLKISRVEAEDVGVYYCLQTTRVPLTFGQGTKLEIKR
B2: 4b-B10 Fab (Fab, V domains shown)
VH: B1 VH with Q104A, A105H, G106W, H107L
VL: B1 VL
B3: 4a-D5 Fab (Fab, V domains shown)
VH: B1 VH with Q104D, A105N, G106V, H107A
VL: B1 VL
B4: 4b-D4 Fab (Fab, V domains shown)
VH: B1 VH with Q104M, G106T, H107P
VL: B1 VL
B5: 4a-E10 Fab (Fab, V domains shown)
VH: B1 VH with Q104F, A105Q, G106S, H107T
VL: B1 VL
B6: 4b-A12 Fab (Fab, V domains shown)
VH: B1 VH with Q104P, A105E, G106P, H107Q
VL: B1 VL
B7: 20C2-18A Fab (Fab, V domains shown)
VH: B1 VH with L24F, Q104L, A105R, G106S, H107I
VL: B1 VL with L94M, T96S, T97S, R98F
B8: 20C2-1A Fab (Fab, V domains shown)
VH: B1 VH with L24F, Q104L, A105R, G106S, H107I
VL: B1 VL with L94F, T96A, T97S
B9: 20C2-8A Fab (Fab, V domains shown)
VH: B1 VH with L24F, Q104L, A105R, G106S, H107I
VL: B1 VL
B10: 20C2-7A Fab (Fab, V domains shown)
VH: B1 VH with L24F, Q104L, A105R, G106S, H107I
VL: B1 VL with Q95N, T96S, R98T
B11: 20C2-12A Fab (Fab, V domains shown)
VH: B1 VH with L24F, Q104L, A105R, G106S, H107I
VL: B1 VL with T96S, T97S, R98L
B12: 20C2-9A Fab (Fab, V domains shown)
VH: B1 VH with L24F, Q104L, A105R, G106S, H107I
VL: B1 VL with L94V, T97S, R98L
B13: 20C2-13A Fab (Fab, V domains shown)
VH: B1 VH with L24F, Q104L, A105R, G106S, H107I
VL: B1 VL with T97S, R98N
B14: 20C2-18A IgG1 (antibody, V domains shown)
VH: B1 VH with L24F, Q104L, A105R, G106S, H107I
VL: DVVMTQSPLSLPVTPGEPASISCRSSQSILHSNGNTYLEWYLQKPGQSPQLLIYKVSNRFSGVPDRFSGSGSGTDFTLKISRVEAEDVGVYYCMQSSFVPLTFGQGTKLEIK
notes: also called SJ-p1-9M
B15: 20C2-12A IgG1 (antibody, V domains shown)
VH: B1 VH with L24F, Q104L, A105R, G106S, H107I
VL: B14 VL with M94L, F98L
notes: also called 4P1-32
B16: 20C2-13A IgG1 (antibody, V domains shown)
VH: B1 VH with L24F, Q104L, A105R, G106S, H107I
VL: B14 VL with M94L, S96T, F98N
notes: also called 4p1-20; 4P1-20
B17: 20C2-20A IgG1 (antibody, V domains shown)
VH: B1 VH with L24F, Q104L, A105R, G106S, H107I
VL: B14 VL with M94F, S96G, F98L, V99F, L101P, T102V
notes: also called SJ-p3-15
B18: 20C2-23A IgG1 (antibody, V domains shown)
VH: B1 VH with L24F, Q104L, A105R, G106S, H107I
VL: B14 VL with M94H, F98K
notes: also called 4P1-40
B19: 20C2-10A IgG1 (antibody, V domains shown)
VH: B1 VH with L24F, Q104L, A105R, G106S, H107I
VL: B14 VL with M94F, S96G, F98R, V99L, L101V, T102S
notes: also called SJ-p3-33
B20: 20C2-9A IgG1 (antibody, V domains shown)
VH: B1 VH with L24F, Q104L, A105R, G106S, H107I
VL: B14 VL with M94V, S96T, F98L
notes: also called SJ-p2-51
B21: Hu20C2A3 (veneered version of clone A3, IgG2m4 isotype) (antibody, V domains shown)
VH: B1 VH with A10G, V12L, I39F, A46G, M84I, M87V, Q104T, A105R, H107T
VL: B1 VL with S7T, E17Q
notes: To be checked against the listing; also called Hu20C2A3 IgG2m4

One assay has as its target T2, biotinylated ADDL (bADDL) (UniProt P05067 672-713, N-terminal biotin).
T2 construct: domain: Aβ1-42; Panning and ELISA speak of 10% biotinylated ADDL; also called bADDLs; high molecular weight bADDL
Briefly: BIACORE, Fab against bADDL.
One may read the Kd as the equilibrium constant for the complex coming apart. The low end stands for higher affinity, the high end for lower affinity. In the case of B1, the affinity, expressed as Kd, was 8.43 nM.

In the case of B2, the affinity, expressed as Kd, was 62.8 nM. B3: binding was characterised by a dissociation constant (Kd) of 1.17 nM. Same read-out and setting: in the case of B4 it was 18.6 nM; in that of B5, 18.5 nM; in that of B6, 154 nM.

The next assay has as its target T2, biotinylated ADDL (bADDL). Briefly: BIACORE, bADDL as antigen; Fab. On the technique in general: In SPR one partner is held on a chip, and binding of the other changes the refractive index at the surface.
Turning to B7, the dissociation constant Kd was found to be 85 nM. The same measure, in the same setting: the value for B8 was 85 nM; that for B9 was 13 nM; that for B10 was 435 nM.

B11 registered a dissociation constant (Kd) of 238 nM. Still for that read-out and setting: in the case of B12 it was 40 nM; in that of B13, 567 nM.

The next assay concerns the target T2, biotinylated ADDL (bADDL). Briefly: BIACORE, bADDL as antigen; IgG1#1.
The molecule B14 registered a Kd of 0.149 nM. On the same count and under the same terms, the value for B15 was 0.015 nM. B16 came in with a Kd of 0.764 nM. B17 showed a Kd of 6.9 nM.

Molecule B18 had a dissociation constant Kd of 0.085 nM.

In turn, B19 showed an equilibrium dissociation constant (Kd) of 7.7 nM.

The next assay has as its target T2, biotinylated ADDL (bADDL). In words: BIACORE, bADDL as antigen; IgG1#2.
With B20, the Kd is 0.002 nM. In turn, B18 registered a dissociation constant (Kd) of 0.066 nM.

In another assay the target is T1, biotin-Aβ1-20. In words: BIACORE, Fab against biotinylated-Aβ1-20.
Regarding B1, the Kd was found to be 2.46 nM. B2 yielded a Kd of 7.43 nM. B3 displayed an equilibrium dissociation constant (Kd) of 3.91 nM. B4 yielded a dissociation constant (Kd) of 4.87 nM.

B5 came in with a dissociation constant Kd of 3.6 nM.

Take B6: the Kd amounted to 10.1 nM.

The next assay has as its target T3, Aβ40 monomer (UniProt P05067 672-711).
T3 construct: domain: Aβ(1-40); also called Aβ monomer; amyloid beta (1-40) peptide
In words: titration ELISA on Aβ40 monomer, A450 nm; Hu20C2A3 produced in CHO. A general note: An ELISA detects its analyte on a solid surface through an enzyme-linked reagent.
The EC50 (read off the curve) is the concentration that produces a half-maximal response. Read a low EC50 (read off the curve) as a more potent agent. Turning to B21, the “EC50 (read off the curve)” value was roughly 0.04 µg/mL.

A further assay concerns the target T4, Aβ-derived diffusible ligands (ADDLs) (UniProt P05067 672-713).
T4 construct: domain: Aβ1-42
In words: titration ELISA on captured ADDL, A450 nm; Hu20C2A3 produced in CHO. The method, then:
(§1) Affinity maturation was carried out to improve affinity and improve preferential binding to ADDL. To evaluate ADDL binding affinity of the humanized antibodies, BIACORE™ and titration ELISAs were conducted as disclosed herein. Briefly, Streptavidin-coated, 96-well microtiter plates (Sigma, St. Louis, Mo.) were coated with 10% biotinylated ADDL antigen (1 μM). A series of 2-fold dilutions of purified antibody, starting at 500 ng/mL was added to the ADDL captured plates and the plates were incubated for 2 hours at 25° C. After washing five times with PBS solution using a plate washer (Bio-Tek, Winooski, Va.), polyclonal goat anti-human kappa light chain antibody (Biomeda, Foster City, Calif.) was added at a 1/2000 dilution in 3% non-fat milk blocker and incubated at room temperature for 1 hour. A rabbit anti-goat IgG (H+L) HRP-conjugated (Bethyl Laboratories, Inc., Montgomery, Tex.) detection antibody was then added at a 1/2000 dilution in blocking solution and incubated for 1 hour at room temperature. After washing with PBS, HRP substrate, 3,3′,5′5-tetramethylbenzidine (ready-to-use TMB; Sigma, St. Louis, Mo.) was added and the reaction was stopped after 10 minutes with 0.5 N H₂SO₄. Absorbance at wavelength of 450 nm was read in a plate reader (model VICTOR V; Perkin Elmer, Boston, Mass.) and data were processed using EXCEL® work sheet.
With B21, the “EC50 (read off the curve)” value is roughly 0.008 µg/mL.

Another assay addresses T3, Aβ40 monomer. Briefly: titration ELISA on Aβ40 monomer, A450 nm; Hu20C2A3 produced in Pichia.
As for B21, the “EC50 (read off the curve)” value was roughly 0.04 µg/mL.

A further assay addresses T4, Aβ-derived diffusible ligands (ADDLs). In words: titration ELISA on captured ADDL, A450 nm; Hu20C2A3 produced in Pichia. The method, then: as §1
As for B21, the “EC50 (read off the curve)” value is roughly 0.009 µg/mL.
